Results: paper PMC10593786 (Nature Communications, 2023)
Values belong to the binder of their own block, whether it stands above or below them.

B3: Myo6 ^YFPCBD (WT) (domain or fragment, mouse, UniProt Q64331 1032-1262, looked up)
chain: MALRRGPAVQATKAAAGTKKHDLSKWKYAELRDTINTSCDIELLAACREEFHRRLKVYHAWKSKNKKRNTETEQRAPKSVTDYDFAPFLNNSPQQNPAAQLPARQQEIDMKRQQRFFRIPFIRPADQYKDPQNKKKGWWYAHFDGPWIARQMELHPDKPPILLVAGKDDMEMCELNLEETGLTRKRGAEILPRQFEEIWERCGGIQYLQSAIESRQARPTYATAMLQNLLK
notes: The results call it CBD^1035-end, the methods give M1032; also called Myo6 CBD; CBD^1035-end; source: E. coli BL21 (DE3), purified (HisTrap IMAC, SEC); not shown: YFP, N-terminal, kept
B5: ^HisTOM1 (His-TOM1 207-492) (domain or fragment)
chain: DTPIAPTPEQIGKLRSELEMVSGNVRVMSEMLTELVPTQAEPADLELLQELNRTCRAMQQRVLELIPQIANEQLTEELLIVNDNLNNVFLRHERFERFRTGQTTKAPSEAEPAADLIDMGPDPAATGNLSSQLAGMNLGSSSVRAGLQSLEASGRLEDEFDMFALTRGSSLADQRKEVKYEAPQATDGLAGALDARQQSTGAIPVTQACLMEDIEQWLSTDVGNDAEEPKGVTSEEFDKFLEERAKAADRLPNLSSPSAEGPPGPPSGPAPRKKTQEKDDDMLFAL
notes: human TOM1 residues 207-end (207-492); The ATPase assays used His-YFP-TOM1 436-461, the MNT-1 assays ^mCherryMST-TOM1 (299-end); also called TOM1 207-end; source: E. coli BL21 (DE3), purified (IMAC, SEC); not shown: His6, N-terminal, kept

Columns and labels:
[1] = target: the molecule itself; experiment: SEC-MALS; fragments of the 3HB/SAH junction on Superdex 200 10/300 Increase, 0.5 mL/min; titration; apparent KD, dimer to monomers
[2] = target: the molecule itself; experiment: SEC-MALS; injection of 50 µL at 10 mg/mL in 10 mM Tris-HCl pH 7.5, 50 mM NaCl, 5 mM NaN3, 0.5 mM TCEP; peak concentration by the in-line refractometer
[3] = target: T1, Myo6 MD^Ins2/IQ/3HB (1-917) ( | human, UniProt Q29122 1-917; P0DP23 1-149); experiment: MST; ^YFPCBD kept at 100 nM, Head sample titrated (16 two-fold dilutions), 25 °C, 20 mM Hepes pH 7.5, 50 mM NaCl, 2.5 mM MgCl2, 1 mM TCEP, 0.05% Tween-20, with 2 mM MgADP and 2 mM Na3VO4 (motor state ADP.VO4); details: both partners purified
T1 construct: also called Myo6-917; Myo6 Head fragment

[4] = target: T2, Myo6 MD^Ins2 (2-816) ( | human, UniProt Q29122 2-816; P0DP23 1-149); experiment: as above; details: both partners purified
T2 construct: also called Tail-less construct

[5] = target: T3, Myo6 MD (1-789) (UniProt Q29122 1-789); experiment: as above; details: both partners purified
T3 construct: myosin VI (Myo6) residues 1-789: Motor domain; also called Motor domain; source: Sf9/baculovirus, co-infected with human CaM virus, purified (anti-Flag resin)

[6] = target: T1, Myo6 MD^Ins2/IQ/3HB (1-917); experiment: MST; ^YFPCBD kept at 100 nM, Head sample titrated (16 two-fold dilutions), 25 °C, 20 mM Hepes pH 7.5, 50 mM NaCl, 2.5 mM MgCl2, 1 mM TCEP, 0.05% Tween-20, nucleotide-free (motor state NF); details: both partners purified
[7] = target: B5; experiment: MST; ^YFPCBD kept at 100 nM, Myo6 partner titrated (16 two-fold dilutions), 25 °C, 20 mM Bis-Tris pH 6.5, 100 mM KCl, 1 mM DTT, 0.05% Tween-20; details: both partners purified
[8] = target: B3; experiment: MST; ^YFPCBD kept at 100 nM, Ins2/IQ/3HB titrated (16 two-fold dilutions), 25 °C, 20 mM Hepes pH 7.5, 50 mM NaCl, 2.5 mM MgCl2, 1 mM TCEP, 0.05% Tween-20; motor state '-' (no Motor domain); details: both partners purified
[9] = target: T4, FLMyo6 SI (SAHmimic) (human, UniProt Q9UM54-2 1-1262; P0DP23 1-149, Glu922 to Glu935 (EAERLRRIQEEMEK) replaced with EERKRREEEERKKREEE); experiment: pull-down; anti-His pull-down on Ni2+ beads, His-partner and FLMyo6 SI (SAHmimic) 1/1 (10 µM), 1 µM extra calmodulin, 4 °C; which of the three buffers is not given; details: both partners purified
T4 construct: also called FLMyo6 (SAHmimic)

[10] = target: T5, full-length wild-type Myo6, small insert isoform (FLMyo6 SI (WT)) (human, UniProt Q9UM54-2 1-1262; P0DP23 1-149); experiment: pull-down; details: both partners purified
T5 construct: also called FLMyo6 (WT)

[11] = target: B3; experiment: MST; ^YFPCBD kept at 100 nM, Myo6 partner titrated (16 two-fold dilutions), 25 °C, 20 mM Bis-Tris pH 6.5, 100 mM KCl, 1 mM DTT, 0.05% Tween-20; details: both partners purified

T3 sequence (Q29122 1-789): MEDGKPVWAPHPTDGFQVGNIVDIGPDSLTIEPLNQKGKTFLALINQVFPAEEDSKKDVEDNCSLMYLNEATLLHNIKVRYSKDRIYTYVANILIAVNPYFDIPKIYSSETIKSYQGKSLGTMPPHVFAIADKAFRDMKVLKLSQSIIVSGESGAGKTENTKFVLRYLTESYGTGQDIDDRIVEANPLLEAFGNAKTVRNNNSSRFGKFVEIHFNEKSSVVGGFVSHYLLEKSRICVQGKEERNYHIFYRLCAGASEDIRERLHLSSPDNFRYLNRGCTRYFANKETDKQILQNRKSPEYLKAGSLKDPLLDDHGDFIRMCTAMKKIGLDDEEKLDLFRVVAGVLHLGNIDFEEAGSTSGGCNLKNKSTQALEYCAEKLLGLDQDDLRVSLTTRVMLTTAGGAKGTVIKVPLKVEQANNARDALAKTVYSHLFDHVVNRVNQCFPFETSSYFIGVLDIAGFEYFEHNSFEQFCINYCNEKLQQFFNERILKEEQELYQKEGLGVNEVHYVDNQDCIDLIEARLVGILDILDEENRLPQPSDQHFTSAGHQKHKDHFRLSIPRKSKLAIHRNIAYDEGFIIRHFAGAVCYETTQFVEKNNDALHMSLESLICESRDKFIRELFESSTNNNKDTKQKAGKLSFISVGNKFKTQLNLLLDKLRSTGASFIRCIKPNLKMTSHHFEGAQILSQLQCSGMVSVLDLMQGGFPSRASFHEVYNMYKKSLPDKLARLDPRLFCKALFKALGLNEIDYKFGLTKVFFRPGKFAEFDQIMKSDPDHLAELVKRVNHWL

B1: Myo6 875-940 (N-terminal 6xHis-tag, pET14) (domain or fragment, mouse, UniProt Q64331 875-940, looked up)
chain: EISIDALMAKIKSTMMTREQIQKEYDALVKSSEDLLSALQKKKQQEEEAERLRRIQEEMEKERKRR
notes: mouse myosin VI aa 875-940: 2nd and 3rd helix of the 3HB and first part of the SAH; also called aa 875-940; 875-940 peptide; source: E. coli BL21 (DE3), purified (IMAC, SEC)
Kd [1]: ~19000 nM

B2: Myo6 875-940 (his-rTEV-875-940, pProEX-HTb) (domain or fragment, mouse, UniProt Q64331 875-940, looked up)
chain: EISIDALMAKIKSTMMTREQIQKEYDALVKSSEDLLSALQKKKQQEEEAERLRRIQEEMEKERKRR
notes: mouse myosin VI aa 875-940; Made for crystallization; also called Myo6 875-940 WT; 875-940 peptide; source: E. coli BL21 (DE3), purified (IMAC, rTEV, SEC); not shown: His6, N-terminal, cleaved
stoichiometry N [2]: 2

Binder: B3
Kd [3]: 144 nM
Kd [4]: 343 nM
Kd [5]: 3920 nM
Kd [6]: 726 nM
binding result [7]: binds

Kd [8]: 250 nM
B4: Myo6 Ins2/IQ/3HB (aa 783-917) (domain or fragment, human, UniProt Q9UM54-5 783-917, looked up)
chain: RVNHWLTCSRWKKVQWCSLSVIKLKNKIKYRAEACIKMQKTIRMWLCKRRHKPRIDGLVKVGTLKKRLDKFNEVVSVLKDGKPEMNKQIKNLEISIDTLMAKIKSTMMTQEQIQKEYDALVKSSEELLSALQKKK
notes: human myosin VI, aa 783-917 (insert-2, IQ, 3-helix bundle), from the human FLMyo6 no-insert construct; source: E. coli BL21 (DE3), purified (IMAC, SEC); not shown: His6, N-terminal, cleaved

Binder: B5
binding result [9]: binds
binding result [10]: binds

binding result [11]: binds
B6: ^HisGIPC1 (His-rTEV-GIPC1 255-end) (domain or fragment, mouse, UniProt Q9Z0G0 255-333, looked up)
chain: DLPSAFEEKAIEKVDDLLESYMGIRDTELAATMVELGKDKRNPDELAEALDERLGDFAFPDEFVFDVWGAIGDAKVGRY
notes: mouse GIPC1 truncated in the N-terminus at aa D255 to keep only the GH2 domain; The ATPase assays used His-mNeonGreen-GIPC1 238-end, the MNT-1 assays ^mCherryMST-GIPC1 (239-end); also called GH2 domain; source: E. coli BL21 (DE3), purified (IMAC, SEC); not shown: His6, N-terminal, kept
